Assay results reported in patent publication US20250236663A1.

Tests used:
[1] = biological target: Recombinant human FAM19A5 protein (His-tagged) (human) (UniProt Q7Z5A7); test: ELISA, N'-Term His; R² 0.9422
[2] = biological target: Recombinant human FAM19A5 protein (His-tagged) (human) (UniProt Q7Z5A7); test: ELISA, N'-Term His; design: unit not given here
[3] = biological target: FAM19A5 epitope fragment F4 (BSA-conjugated) (human); test: ELISA on the coated BSA-conjugated fragment
[4] = biological target: FAM19A5 epitope fragment F1 (BSA-conjugated) (human); test: ELISA on the coated BSA-conjugated fragment
[5] = biological target: FAM19A5 epitope fragment F3 (BSA-conjugated) (human); test: ELISA on the coated BSA-conjugated fragment
[6] = biological target: FAM19A5 epitope fragment F6 (BSA-conjugated) (human); test: ELISA on the coated BSA-conjugated fragment
[7] = biological target: FAM19A5 epitope fragment F2 (BSA-conjugated) (human); test: ELISA on the coated BSA-conjugated fragment
[8] = biological target: Recombinant human FAM19A5 protein (His-tagged) (human) (UniProt Q7Z5A7); test: ELISA on coated His-tagged FAM19A5 (positive control); the bar ends at the top of the axis

B1: Anti-FAM19A5 (P2-C12) (antibody, V domains shown)
VH: QSLEESGGRLVTPGTPLTLTCTVSGFSLSTYAVTWVRQAPGKGLEWIGYINWRGGTSYANWAKGRFTISKTSSTTVDLKMTSPTTEDTATYFCARDASSGAAFGSYGMDPWGPGTLVTVSS
VL: ELDMTQTPSSVSAAVGGTVTIKCQASQSISSYLSWYQQKPGQPPKLLIYEASKLASGVPSRFSGSGYGTEFTLTISDLECADAATYYCQQGYSSTNVWNAFGGGTNVEIK
- Kd [1]: 7.64 nM
- Bmax [2]: 1.73
- O.D (492nm) [3]: 0.162
- O.D (492nm) [4]: 0.139
- O.D (492nm) [5]: 0.224
- O.D (492nm) [6]: 0.139
- O.D (492nm) [7]: 0.394
- O.D (492nm) [8]: 4
